± gives the uncertainty stated by the source.
Experiment: protein stability index of a GFP-peptide fusion (yeast GPS) (PSI 1-4); higher = more stable; sorted into four equal gates, so the index is relative within each strain
Outline: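 Yeast carrying a pooled library were grown to mid-log phase in leucine-free medium. Each library plasmid expresses Cherry and has a tiled 17-residue yeast protein peptide fused downstream of GFP. Cells were sorted into four equal gates by GFP/Cherry ratio, and plasmids from each gate were PCR-amplified, Illumina-sequenced and assigned to strains by barcode. Summing, across gates, the read frequency times the gate number gave each peptide's protein stability index.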

| Sequence | protein stability index (doa10∆) | protein stability index (pdr5∆) | protein stability index (san1∆) | protein stability index (ubr1∆) |
| --- | --- | --- | --- | --- |
| DVKVIMATNKIETLDPA [RPT2] | 3.17 ± 0.091 | 2.96 ± 0.093 | 2.92 ± 0.07 | 2.9 ± 0.068 |
| LNESRSQHKKILEELDF [SMC3] | 3.38 ± 0.12 | 3.26 ± 0.098 | 3.01 ± 0.069 | 3.06 ± 0.082 |
| AAAGGDAAAEEEKEEEA [RPP1B] | 3.32 ± 0.21 | 3.46 ± 0.16 | 3.16 ± 0.2 | 3.08 ± 0.23 |
| VRIPPDQFHRDTISAIT [RPC25] | 1.91 ± 0.042 | 2.43 ± 0.048 | 2.02 ± 0.064 | 1.8 ± 0.032 |
| GVSISVSFNSKQNEQLH [SMC3] | 1.87 ± 0.064 | 2.01 ± 0.065 | 2.7 ± 0.13 | 2.35 ± 0.11 |
| RAKALGIKVTNPKGRLA [RPL32] | 3.62 ± 0.3 | 3.33 ± 0.18 | 2.87 ± 0.23 | 3.39 ± 0.27 |
| LISDQLLEFFELVFSKG [YML103C/NUP188] | 2.57 ± 0.077 | 2.71 ± 0.11 | 3.1 ± 0.066 | 2.9 ± 0.057 |
| ALTQMDQDKVNFASGDN [RPB3] | 3.33 ± 0.14 | 3.5 ± 0.13 | 3.08 ± 0.15 | 3.65 ± 0.28 |
| GLVKQHLDSFNYFVDTD [RET1] | 3.46 ± 0.17 | 3.05 ± 0.097 | 2.97 ± 0.11 | 3.36 ± 0.075 |
| LGGPITKESQPTIEEDL [FAS2] | 3.02 ± 0.21 | 3.19 ± 0.15 | 2.77 ± 0.18 | 2.96 ± 0.069 |
| TDLIREKTMMTFGKPEE [YCS4] | 3.14 ± 0.053 | 3.31 ± 0.062 | 3.19 ± 0.041 | 3.11 ± 0.05 |
| DLNKENKLLRRKLMEME [YIL149C/MLP2] | 3.41 ± 0.2 | 2.95 ± 0.21 | 3.33 ± 0.11 |  |
| PLDDAGTIGWDLGITEK [MCD1] |  |  |  | 3.05 ± 0.16 |
| LDLKECYQFAEYLFKPQ [ARP7] | 3.05 ± 0.084 | 3.06 ± 0.08 | 3.03 ± 0.063 | 2.97 ± 0.059 |
| TSLKCLVNRKPIPFEFQ [SNF2] | 2.56 ± 0.054 | 2.21 ± 0.043 | 2.13 ± 0.053 | 2.19 ± 0.03 |
| KAIELLEKALQGATNEG [SRP72] |  | 1.14 ± 0.18 |  | 1.18 ± 0.22 |
| SVPIWVDTSTELESMLE [RRP6] | 3.07 ± 0.12 | 3.28 ± 0.16 | 3.06 ± 0.063 | 2.96 ± 0.085 |
| AGLGKTNELWARLAILK [YGR119C/NUP57] | 2.38 ± 0.086 | 1.67 ± 0.091 | 2.02 ± 0.2 | 3.56 ± 0.14 |
| DNSEYSRNGDFPRTRFE [RPN10] | 3.13 ± 0.2 | 3.12 ± 0.22 | 3.45 ± 0.16 | 3.49 ± 0.17 |
| MIELICSSATVPKHMLD [AAR2] | 1.85 ± 0.082 | 2.26 ± 0.078 | 1.82 ± 0.11 | 1.94 ± 0.058 |

| Sequence | protein stability index (doa10∆) | protein stability index (pdr5∆) | protein stability index (san1∆) | protein stability index (ubr1∆) |
| --- | --- | --- | --- | --- |
| LFPEQQTKEIKTERVED [RPL6B] | 3.55 ± 0.074 | 3.29 ± 0.079 | 3.46 ± 0.061 | 3.38 ± 0.063 |
| LELIGVLSINPDMYERK [MED7] | 2.73 ± 0.077 | 2.98 ± 0.086 | 2.89 ± 0.053 | 2.73 ± 0.061 |
| DGFKIYDNEKTAELIKE [PUP2] | 3.29 ± 0.1 | 3.32 ± 0.15 | 3.15 ± 0.061 | 3.18 ± 0.13 |
| CLTKFQDEEQTEHLTEL [YCG1] | 3.33 ± 0.13 | 3 ± 0.15 | 3.46 ± 0.075 | 2.85 ± 0.11 |
| SSQLNKLTDEQSSLDVA [SIR3] | 2.66 ± 0.088 | 2.93 ± 0.081 | 2.65 ± 0.09 | 2.97 ± 0.056 |
| DQEKKYGMSITETFEKP [RPB2] | 2.85 ± 0.11 | 3.4 ± 0.18 | 3.15 ± 0.096 | 3.5 ± 0.1 |
| TRLVQLREFRITHNTNI [GRR1] | 1.23 ± 0.11 | 1.16 ± 0.06 | 1.04 ± 0.26 | 1.38 ± 0.09 |
| ELGEIIDEDIGNNVQEN [RMP1] |  |  | 3.02 ± 0.26 |  |
| NEAPPKTSLADWQKEDG [YMR153W/NUP53] | 2.74 ± 0.13 | 3.14 ± 0.1 | 2.56 ± 0.16 | 2.93 ± 0.15 |
| DQHVINILWAIYNSASK [YCS4] | 1.69 ± 0.044 | 2.22 ± 0.048 | 1.63 ± 0.077 | 1.59 ± 0.041 |
| NKDASLALQRGATVFVN [DPB4] | 2.61 ± 0.099 | 2.29 ± 0.072 | 2.88 ± 0.067 | 2.32 ± 0.083 |
| PTTVSYIFCISRTIGMV [SCL1] | 1.99 ± 0.039 | 1.97 ± 0.051 | 2.88 ± 0.036 | 1.95 ± 0.039 |
| LVSLLDENDSKKNNAAS [YAR002W/NUP60] | 3 ± 0.07 | 2.92 ± 0.071 | 2.86 ± 0.092 | 3.08 ± 0.056 |
| GWDSLASRNVWSFYNGN [SNU114] | 2.99 ± 0.12 | 3.12 ± 0.077 | 3.48 ± 0.05 | 3.22 ± 0.066 |
| MGRMHSAGKGISSSAIP [RPS13] | 2.74 ± 0.043 | 2.61 ± 0.068 | 3.11 ± 0.048 | 2.88 ± 0.041 |
| EEAGSPLVYRHELITNI [RPB9] | 3.17 ± 0.076 | 3.39 ± 0.058 | 3.28 ± 0.049 | 3.38 ± 0.06 |
| LEEITQYEHLIKGIREY [YDL116W/NUP84] | 2.35 ± 0.22 | 3.07 ± 0.13 | 2.94 ± 0.2 | 2.81 ± 0.14 |
| LVQMYIGEGAKLVRDAF [RPT5] |  |  | 2.51 ± 0.27 |  |
| DITTSIMDNFLERTAIE [RPN1] | 3.21 ± 0.12 | 3.35 ± 0.17 | 3.22 ± 0.086 | 3.28 ± 0.12 |
| ILTKEVQGSTLAQLTSK [RPS1A] | 3.27 ± 0.084 | 3 ± 0.08 | 3.2 ± 0.072 | 2.93 ± 0.15 |
